For one molecule, Kd results are on record in paper PMC6442461 (2020).

The target of this assay is T1, cytochrome f soluble domain lacking the transmembrane helix (Nostoc sp. PCC 7119, UniProt Q93SW9).
T1 chain: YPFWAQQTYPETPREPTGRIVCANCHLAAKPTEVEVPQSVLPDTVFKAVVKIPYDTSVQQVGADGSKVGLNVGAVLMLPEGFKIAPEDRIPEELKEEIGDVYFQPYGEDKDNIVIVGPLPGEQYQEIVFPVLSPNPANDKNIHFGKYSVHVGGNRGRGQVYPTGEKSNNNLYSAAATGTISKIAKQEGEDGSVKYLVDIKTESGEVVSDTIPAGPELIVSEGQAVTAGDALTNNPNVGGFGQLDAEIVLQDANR
Put plainly: fluorescence titration.

B1: plastocyanin (protein)
chain: ETYTVKLGSDKGLLVFEPAKLTIKPGDTVEFLNNKVPPHNVVFDAALNPAKSADLAKSLSHKQLLMSPGQSTSTTFPADAPAGEYTFYCEPHRGAGMVGKITVAG
Consider B1, for which binding was put at a Kd of 70 µM.

One may read the Kd as a measure of binding affinity in units of concentration.
